The values below come from patent publication US20250000991A1, “NECTIN-4 ANTIBODIES AND ANTIBODY-DRUG CONJUGATES” (Eli Lilly and Company, priority 2023, published 2025).

One test has as its target T1, human Nectin-4 (Homo sapiens, UniProt Q96NY8).
T1 construct: His tag; purchased Acro Biosystems NE4-H52H3
T1 sequence (Q96NY8 32-510): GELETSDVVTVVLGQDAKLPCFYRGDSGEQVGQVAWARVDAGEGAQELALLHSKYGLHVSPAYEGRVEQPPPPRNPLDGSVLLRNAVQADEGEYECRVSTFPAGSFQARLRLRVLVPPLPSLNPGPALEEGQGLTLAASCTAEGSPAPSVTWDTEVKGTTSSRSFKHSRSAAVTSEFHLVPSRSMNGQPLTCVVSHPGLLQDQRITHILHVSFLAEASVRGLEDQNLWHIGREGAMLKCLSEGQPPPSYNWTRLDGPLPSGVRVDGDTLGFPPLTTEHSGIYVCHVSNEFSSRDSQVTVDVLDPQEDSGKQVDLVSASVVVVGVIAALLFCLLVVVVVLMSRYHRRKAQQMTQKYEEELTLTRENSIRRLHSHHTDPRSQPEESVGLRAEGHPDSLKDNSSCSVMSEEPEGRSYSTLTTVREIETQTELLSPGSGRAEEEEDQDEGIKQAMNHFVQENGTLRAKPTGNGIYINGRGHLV
Nature of the test: Surface plasmon resonance (Biacore 8K+) binding of nectin-4 ADCs to human Nectin-4. Particulars: human Nectin-4, 37° C., ADC Formula XI DAR 8; n=3 mean ± SD, n=2 replicate values. As for the experimental part:
(§1) An anti-human Fc sensor surface was prepared by amine-coupling of goat anti-human IgG Fc (Southern Biotech Cat. No. 2014-01, Birmingham, AL) to a Biacore Series S CM4 (Cytiva Cat. No. BR-100534) sensor surface at 25° C. For immobilization, a running buffer of 10 mM HEPES, 150 mM NaCl, 0.05% Tween-20, pH 7.4 was used. Flow cells 1 & 2 of all 8 channels were activated with a 1:1 (v/v) mixture of 400 mM 1-Ethyl-3-(3-dimethylaminopropyl) carbodiimide hydrochloride (EDC) and […] N-Hydroxysuccinimide (NHS) at a flow rate of 10 uL/min for 7 minutes. Then the anti-human IgG Fc capture reagent was coupled to the sensor surface (diluted to 50 μg/mL in 10 mM Acetate pH 4.5 buffer) by injecting it in all flow cells and channels at a flow rate of 10 uL/min for 7 minutes. Remaining active groups were blocked by injecting 100 mM ethylenediamine (in 200 mM Borate buffer, pH 8.5) in all flow cells and channels at a flow rate of 10 uL/min for 7 minutes. All channels and flow cells were then preconditioned using three consecutive 1-minute injections of 75 mM phosphoric acid at 10 uL/min.
(§2) In each analysis cycle, a different ADC was captured on flow cell 2 of each channel by injecting it at 5 μg/mL and 10 uL/min. After capture, the same analyte was injected on flow cells 1 and 2 in all 8 channels for 2 minutes at 30 uL/n and dissociation was monitored for 10 minutes. After dissociation, all surfaces were regenerated with three 1-minute injections of 5 mM phosphoric acid at 10 uL/min. ADC capture and analyte cycles were repeated to obtain analyte binding of each ADC at concentrations of 0, 2.5, 7.4, 22, 67, 200 and 600 nM nectin-4.
(§3) Sensorgram data were fit globally with the default 1:1 binding model in Biacore Insight Evaluation Software v3.0.12.15655.

The test system of another test is cyno Nectin-4. Nature of the test: Surface plasmon resonance (Biacore 8K+) binding of nectin-4 ADCs to cyno Nectin-4. The settings on record: cyno Nectin-4, 37° C., ADC Formula XI DAR 8, n=1. As for the experimental part: as §1, §2, §3
The test system of another test is rat Nectin-4. Nature of the test: Surface plasmon resonance (Biacore 8K+) binding of nectin-4 ADCs to rat Nectin-4. The settings on record: rat Nectin-4, 37° C., ADC Formula XI DAR 8, n=1. As for the experimental part:
as §1, §2, §3
(Surface plasmon resonance follows binding to a sensor surface in real time, without labels.)

Test [1] deals with T24 mScarlet clone 5 Nectin-4 negative cells. As to the kind of experiment: Bystander killing of T24-mScarlet clone 5 cells co-cultured with T24-human nectin4 clone108 (imaging). It counts as cell-based. The settings on record: T24-mScarlet clone5 : T24-human nectin4 clone108 9:1, 5 days, ADC Formula XI DAR 8; read-out: IC50 of bystander effect. As to the method:
T24 cell line was engineered to express mScarlet and clonally selected to test in bystander assay. T24-mScarlet clone5 and T24-human nectin4 clone108 were mixed and seeded at a total of 1000 cells/well/100 ul with a ratio of 9:1 in culture medium (McCoy's 5A+1× GlutaMax+10% Heat Inactivated Fetal Bovine Serum+400 μg/ml G418) in flat clear bottom 96-well plates. T24 mScarlet clone 5 cells were negative for nectin-4 expression. Plates were incubated at 37° C. with 5% CO2 overnight. Next day, ADCs were added at final working concentration from 50 nM, 1:4 serially diluted in culture medium. Plates were covered with Breathe-Easy® sealing membrane, placed in BioSpa and scanned in Cytation5 every day for 5 days.
Images of T24-mScarlet cells were captured and analyzed by Cytation5 with Gen5 Image Prime 3.11. Percentage of T24-mScarlet cell killing was calculated by decreased Integrated Intensity (area×mean intensity), normalized to zero hour and no treatment. Data was graphed and analyzed using GraphPad Prism version 9.5.1. IC50 was determined via log(inhibitor) vs. response-variable slope (four parameters) curve fitting.

What is called IC50 is the concentration at which inhibition is half-maximal.

B1: Ab3 (conjugate)
heavy: EVQLVESGGGLVKPGGSLRLSCAASGFNLNHYNMNWVRQAPGKGLEWVSSVSSGGGFRYYADSVRGRFTISRDNAKNSLYLQMNSLRAEDTAVYYCARGAVFHDAFDIWGQGTLVTVSSASTKGPSVFPLAPSSKSTSGGTAALGCLVKDYFPEPVTVSWNSGALTSGVHTFPAVLQSSGLYSLSSVVTVPSSSLGTQTYICNVNHKPSNTKVDKRVEPKSCDKTHTCPPCPAPEAAGGPSVFLFPPKPKDTLMISRTPEVTCVVVSVSHEDPEVKFNWYVDGVEVHNAKTKPREEQYNSTYRVVSVLTVLHQDWLNGKEYKCKVSNKALPAPIEKTISKAKGQPREPQVYTLPPSREEMTKNQVSLTCLVKGFYPSDIAVEWESNGQPENNYKTTPPVLDSDGSFFLYSKLTVDKSRWQQGNVFSCSVMHEALHNHYTQKSLSLSPGK
light: DIQLTQSPSFLSASVGDRVTITCRASQDISSYLAWYQQKPGKAPKLLIYVASTLQSGVPSRFSGSGSGTEFTLTISSLQPEDFATYYCQQINSYPFTFGQGTKVEIKRTVAAPSVFIFPPSDEQLKSGTASVVCLLNNFYPREAKVQWKVDNALQSGNSQESVTEQDSKDSTYSLSSTLTLSKADYEKHKVYACEVTHQGLSSPVTKSFNRGEC
With B1, the ka result with human Nectin-4 was “(4.24 ± 0.76) × 10^5 1/Ms”; in the test with cyno Nectin-4, 432000 M⁻¹ s⁻¹; in the test on rat Nectin-4, 171000 M⁻¹ s⁻¹. For the same molecule, the kd entry with human Nectin-4 is “(4.37 ± 1.56) × 10^−4 1/s”; on cyno Nectin-4 it was 0.000426 s⁻¹; on rat Nectin-4 it was 0.000903 s⁻¹. In test [1], the 50% inhibitory concentration (IC50) came out at 0.047 nM.

B2: Ab6 (conjugate)
heavy: QVQLVQSGAEVKKPGASVKVSCKASGYTFTGYYMHWVRQAPGQGLEWMGIINPSGGSTTYAQKFQGRVTMTRDTSTSTVYMELSSLRSEDTAVYYCARGRLGTYFDYWGQGTLVTVSSASTKGPSVFPLAPSSKSTSGGTAALGCLVKDYFPEPVTVSWNSGALTSGVHTFPAVLQSSGLYSLSSVVTVPSSSLGTQTYICNVNHKPSNTKVDKRVEPKSCDKTHTCPPCPAPEAAGGPSVFLFPPKPKDTLMISRTPEVTCVVVSVSHEDPEVKFNWYVDGVEVHNAKTKPREEQYNSTYRVVSVLTVLHQDWLNGKEYKCKVSNKALPAPIEKTISKAKGQPREPQVYTLPPSREEMTKNQVSLTCLVKGFYPSDIAVEWESNGQPENNYKTTPPVLDSDGSFFLYSKLTVDKSRWQQGNVFSCSVMHEALHNHYTQKSLSLSPGK
light: SYVLTQPPSVSVAPGQTARITCGGNNIGSKSVHWYQQKPGQAPVLVVYDDSDRPSGIPERFSGSNSGNTATLTISRVEAGDEADYYCQVWDRSSDQVVFGGGTKLTVLGQPKAAPSVTLFPPSSEELQANKATLVCLISDFYPGAVTVAWKADSSPVKAGVETTTPSKQSNNKYAASSYLSLTPEQWKSHRSYSCQVTHEGSTVEKTVAPTECS
Regarding B2, in the test with human Nectin-4, the ka result is given as “(1.78 ± 0.41) × 10^6 1/Ms” and the kd result is “(1.63 ± 0.25) × 10^−1 1/s”. At cyno Nectin-4 (KD = kd/ka), the KD result is listed as “heterogeneous kinetics*”. Moreover, in the test on rat Nectin-4, the ka came to 925000 M⁻¹ s⁻¹ and the kd is 0.105 s⁻¹. In addition, the IC50 in test [1] was 0.0587 nM.
